From US20050148031A1, “Catalytic efficiency and/or specificity of non-native substrates of enzymes” (priority 2003, published 2005)
One block for each compound: values may come before it.

What was measured:
[1] = target: T1, MEK2 phosphorylation of ERK2 (Mus musculus, UniProt P63085, K52R); experiment: Kinase assay: MEK2 phosphorylation of ERK2 with docking domain peptides; assay type: biochemical, human (MEK2)
T1 construct: purchased New England Biolabs (ERK2 K52R); Upstate Biotechnology (MEK2)
Protocol: The following experiment was done to investigate whether docking domain peptides could inhibit MEK2 phosphorylation of ERK2. […] An autoradiogram of a representative experiment is shown (see FIG. 2A). The results were plotted as percent phoshphorylation relative to that observed in the absence of any added peptide (see FIG. 2B). ERK2 phosphorylation was analyzed by SDS-PAGE and quantified. Data are the average of two to four experiments, with triplicate data points in each experiment.
ERK2 and peptide were pre-incubated in buffer for 10 min at 37° C., then returned to ice prior to the addition of ATP and MEK2. Reactions were for 20 min at 30° C. ERK2 phosphorylation was quantified by SDS-PAGE followed by analysis of relative incorporation using a Phosphorlmager™ (Molecular Dynamics, Inc.).

[2] = target: T2, MKP-1 dephosphorylation of ERK2 (Mus musculus, UniProt P63085); experiment: Phosphatase assay: MKP-1 dephosphorylation of ERK2 with docking domain peptides; assay type: biochemical, human (MKP-1); details: western blot with anti-phospho-ERK2
T2 construct: purchased Upstate Biotechnology (MKP-1); no vendor is printed for the active ERK2 in this assay
Protocol: The following experiment was performed to assess whether MAPK-docking domain peptides would inhibit dephosphorylation of ERK2 by MKP-1. Purified, full-length, activated ERK2 (0.5 pmol) was incubated with 0.5 units of purified active MKP-1 for 20 min, in the absence or presence of the specified concentrations of the indicated peptides. ERK2 dephosphoryation was quantified by SDS-PAGE followed by western blotting and immonostaining with anti-phospho-ERK2 (Thr202/Tyr204). The lanes corresponding to ERK2 with no MKP-1 or no added peptide contain 50% of the relative amounts loaded in all other lanes (see FIG. 4A).
Phosphatase reactions (20 μl) for MKP-1 dephosphorylation of ERK2 contained 50 mM Tris-HCl (pH 7.5), 50 mM NaCl, 0.5 pmol active mouse ERK2, 0.5 units active human MKP-1 (Upstate Biotechnology) and the indicated concentration of peptide. Reactions were for 30 min. at 30° C. Reactions were analyzed by SDS-PAGE followed by western transfer and immunostaining with anti-phospho-ERK2 (Thr202/Tyro204) antibody (New England Biolabs).

MEK2 binding to GST-ERK2 = target: T3, MEK2 binding to GST-ERK2 (Mus musculus, UniProt P63085); experiment: GST co-sedimentation (pull-down) assay of 35S-MEK2 binding to GST-ERK2; details: 25 μM or 100 μM peptide
T3 construct: made in house; host or cells: MEK2 by in vitro translation
Protocol: The purpose of the following experiment is to assess whether MAPK docking domain peptides would inhibit MEK2-binding to GST-ERK2. Radiolabeled (^35S) MEK2 and MEK2Δ4-16 proteins (˜1 pmol) were prepared by in vitro translation, partially purified by ammonium sulfate precipitation, and then incubated with 10 μg of purified GST or GST-ERK2 pre-bound to glutathione-Sepharose beads, in the absence or presence of the specified concentrations of docking domain peptides (Ste7, MEK1, MEK2, Elk-1) or mutant forms of docking domain peptides (scram7, MEK2EEAA, ElkEEG). Bead-bound protein complexes were isolated by sedimentation and resolved on 12% SDS-polyacrylamide gels. An autoradiogram of a representative experiment is illustrated (see FIG. 5A). Gels were analyzed by staining with Coomassie Blue for visualization of the bound GST fusion protein in order to verify equal amounts in each reaction and by autoradiography for visualization of the bound radiolabeled MEK2 or MEK2Δ4-16 to GST or GST-ERK2 in the absence of peptide (hatched bars), or in the presence of 25 μM (light gray bars) or 100 μM peptide (dark gray bars) (see FIG. 5B). Data are the average of three to five experiments; standard error bars are shown.
The constructs and methods used in the GST co-sedimentation (“pull-down”) experiments shown in FIG. 5 have been described elsewhere (Bardwell et al., 2001). […]

IC50 ([1]; 1 μM inactive ERK2, 0.1 units active MEK2, 20 min, read-out: IC50 for inhibition of MEK2 phosphorylation of ERK2): ~100 µM
Compound: CC[C@H](C)[C@H](NC(=O)[C@@H]1CCCN1C(=O)[C@@H](NC(=O)[C@@H]1CCCN1C(=O)[C@H](CCCCN)NC(=O)[C@H](CCCCN)NC(=O)[C@H](CCCCN)NC(=O)[C@@H]1CCCN1C(=O)[C@@H](N)CCSC)[C@@H](C)O)C(=O)N[C@@H](CCC(N)=O)C(=O)N[C@@H](CC(C)C)C(=O)N[C@@H](CC(N)=O)C(=O)N1CCC[C@H]1C(=O)N[C@@H](C)C(=O)N1CCC[C@H]1C(=O)N[C@@H](CC(=O)O)C(=O)NCC(=O)O [MEK1, MPKKKPTPIQLNPAPDG]

inhibition of MKP-1 mediated dephosphorylation of phospho-ERK2 (in words) [2]: dose-dependent inhibition
inhibition of MEK2 protein co-sedimentation with GST-ERK2 (in words) (MEK2 binding to GST-ERK2): inhibited
Compound: KGRKPRDLELPLSPS [Elk-1, docking domain peptide from Elk-1 residues 312-326]

inhibition of ERK2 phosphorylation by MEK2 (in words) ([1]; peptide titrated into MEK2 kinase assay): did not inhibit
Compound: MLAEEKPVLPAATANPTIAE [MEK2 mutant peptide, MEK2 peptide with mutations in basic and hydrophobic residues]
